These results are taken from patent US20140162292A1 (TOKYO METROPOLITAN INSTITUTE OF MEDICAL SCIENCE, published 2014).

Where no end group is shown, it is not given here. [ ]: non-standard residue; d: D form. pS = N[C@@H](COP(=O)(O)O)C(=O)O

The target in test [1] is T1, mouse Keap1-DC (aa321-609) (mouse, UniProt Q9Z2X8 321-609).
T1 construct: also called Keap1-DC domain
Put plainly: isothermal titration calorimetry, 25 C, peptide injected into Keap1-DC. (In ITC the heat of successive injections is recorded.)
Procedure: (§1) First, isothermal titration calorimetry was performed using MicroCal iTC₂₀₀ System (GE Healthcare) at 25° C. […] The binding data were analyzed using Origin 7 software (GE healthcare).

Test [2] addresses T1, mouse Keap1-DC (aa321-609). Put plainly: isothermal titration calorimetry.
Procedure: as §1

T1 sequence (Q9Z2X8 321-609 limits assumed): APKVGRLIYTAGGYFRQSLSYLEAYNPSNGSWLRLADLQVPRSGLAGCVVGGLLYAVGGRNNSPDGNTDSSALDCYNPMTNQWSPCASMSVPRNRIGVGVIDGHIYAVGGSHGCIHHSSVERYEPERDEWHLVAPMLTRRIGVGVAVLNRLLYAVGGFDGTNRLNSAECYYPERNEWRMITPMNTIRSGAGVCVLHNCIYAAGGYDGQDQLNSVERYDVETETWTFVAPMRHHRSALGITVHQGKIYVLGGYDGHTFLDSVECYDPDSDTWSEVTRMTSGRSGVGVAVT

For LDEETGEFL (also called ETGE motif of mouse Nrf2) [Nrf2-ETGE motif (76-LDEETGEFL-84) of mouse Nrf2], the Ka in test [1] came to 6.83e+06 M⁻¹.

B1: non-phosphorylated KIR (348-VDPSTGELQ-356) of mouse p62 (peptide)
peptide: VDPSTGELQ
notes: also called non-phosphorylated p62-KIR; KIR in mouse non-phosphorylated p62
Turning to B1, in test [1], the Ka is 56700 M⁻¹.

B2: phosphorylated KIR (VDP(pS)TGELQ) of mouse p62 (peptide)
peptide: VDP[pS]TGELQ
notes: also called phosphorylated p62-KIR; KIR in mouse phosphorylated p62
As for B2, the “fold binding affinity against KIR in the non-phosphorylated p62” value in test [2] is ~100 times. The molecule also came in with a Ka in test [1] of 5.12e+06 M⁻¹.
